Earlier results in PMC11087986.
Read-outs that look alike come from different tables or passages of the source.

Assays:
[1] = biological target: RBM39 RRM1-RRM2 (Homo sapiens) (UniProt Q14498)
[2] = biological target: RBM39 RRM1-RRM2 (Homo sapiens) (UniProt Q14498); remark: listed apart in the source
[3] = biological target: RBM39 RRM1-RRM2 (Homo sapiens) (UniProt Q14498); remark: listed apart in the source

Sequence of UniProt Q14498 (Q14498 153-328): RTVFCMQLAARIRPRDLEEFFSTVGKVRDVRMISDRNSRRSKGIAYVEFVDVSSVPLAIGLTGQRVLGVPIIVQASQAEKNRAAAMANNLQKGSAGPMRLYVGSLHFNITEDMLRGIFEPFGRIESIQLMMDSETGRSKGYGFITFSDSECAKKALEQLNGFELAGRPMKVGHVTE

- Kd [1]: 160 nM
- Kd [2]: 4600 nM
- Kd [3]: 120 nM
Substance: DCAF15 (from UniProt Q66K64)
